The values below come from paper PMC11655885, “Structural mechanism of CB1R binding to peripheral and biased inverse agonists” (Nature Communications, 2024).

The target in one experiment is CB1R-5M-PGS (Homo sapiens, UniProt P21554). In words: Analytical gel filtration test of CNB36 binding to CB1R-5M-PGS. The following applies: purified CNB36. On the procedure: For binding tests, 10 μM purified CNB36 was incubated for 1 hr with purified PGS or CB1R-5M-PGS (5 μM). The complex was then centrifuged at 21,130 × g for 15 min at 4 °C to remove large aggregates, and the supernatant was run on an analytical-grade Superdex 200 10/300 Increase column at 0.5 mL/min in CB1 gel filtration buffer. The presence or absence of binding of CNB36 to CB1R-5M-PGS or to PGS alone was assessed by SDS-PAGE analysis of peak fractions.
Chain of CB1R-5M-PGS (P21554 with tags, fused parts or gaps): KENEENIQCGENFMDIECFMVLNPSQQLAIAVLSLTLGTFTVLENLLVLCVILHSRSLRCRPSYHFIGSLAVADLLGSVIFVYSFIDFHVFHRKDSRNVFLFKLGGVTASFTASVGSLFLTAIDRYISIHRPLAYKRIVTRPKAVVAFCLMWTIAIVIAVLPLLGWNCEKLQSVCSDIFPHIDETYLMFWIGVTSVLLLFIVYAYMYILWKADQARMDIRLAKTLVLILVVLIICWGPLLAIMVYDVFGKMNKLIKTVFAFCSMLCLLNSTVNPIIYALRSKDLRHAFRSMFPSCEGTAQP
On the technique in general: Size exclusion chromatography separates by hydrodynamic size, large species first.

In experiment [1] the test system is CB1R-5M-PGS over GPR55-PGS. Description: Analytical flow cytometry of yeast-displayed CNB36, CB1R-5M-PGS versus GPR55-PGS. It counts as binding. On the procedure:
Supplementary Figure 1. (A-H) Sel ecti on and bi ochemi cal characteri zati on of CNB36
(A) Overall strategy for nanobody selection and sequence of CNB36.
(B) FA C S sort of a yeast display nanobody library against Alexa647-labeled CB1-PGS […]
round of selection that gave rise to CNB36. The indicated gat e (P5) contains the highly fluorescent CB1-PGS single posit ive populat ion, which was then analyzed by sequencing of individual clones.
(C) Binding of CNB36 to CB1-PGS, read out by size exclusion chromatography and SDS-PA G E . […]
(D) Assessment of binding of CNB36 to PGS alone, as in C.
(E) Analytical flow cytometry comparing binding of CNB36-expressing yeast t o Alexa647-labeled CB1-PGS (Y-axis) versus FI TC-labeled GPR55-PGS (X-axis).
(F) Final sample used for cryo-EM grid preparat ion by size excusion chromatography and […]

B1: CNB36: nanobody selected from a yeast display library against the CB1R-5M-PGS fusion protein (antibody, V domains shown)
VH: QVQLQESGGGLVQAGGSLRLSCAASGTIFGPDVMGWYRQAPGKERELVAGISNGANTYYADSVKGRFTISRDNAKNTVYLQMNSLKPEDTAVYYCAAEVLDYTFAYLYHAYWGQGTQVTVSS
Turning to B1, in the experiment with CB1R-5M-PGS, the “complex formation with CB1R-5M-PGS by size exclusion chromatography” value is reported as “formed a stable complex”. Also, the “specificity for purified CB1R-5M-PGS over GPR55-PGS by FACS” value in experiment [1] is reported as “high specificity”.
